From paper PMC3929611, “Generation of Recombinant Antibodies to Rat GABAA Receptor Subunits by Affinity Selection on Synthetic Peptides” (PLoS ONE, 2014)
Primed or numbered codes have the meaning given here. Ends that are not written are not given here. * marks the point of attachment. Biotin = O=C1N[C@H]2[C@H](CS[C@H]2CCCCC(=O)*)N1; FITC′ = fluorescein isothiocyanate

Key:
[1] = biological target: T1, FITC-labeled α1 peptide (Rattus norvegicus); test: fluorescence polarisation; 6 µM FITC-α1 peptide or 4 µM FITC-β2 peptide with varying scFv (0-35 µM; G11 0-10 µM) or A10 scFv-Fc (0-1 µM) in PBS + 200 mM imidazole, overnight at 4°C or 2 h at RT; settings: both partners purified
T1 construct: GABAA receptor subunit α1, rat, residues 1-15; also called FITC-conjugated target peptide (α1); source: synthetic peptide, HPLC purified
T1 chain: {FITC′}-QPSQDELKDNTTVFT

[2] = biological target: T2, α1β2γ2 GABAA receptor expressed in Xenopus laevis oocytes (rat α1, rat β2 and human γ2 subunit sequences) (Rattus norvegicus (alpha1, beta2); Homo …, UniProt P62813;P63138;P18507); test: immunostaining of cells or tissue; Xenopus oocytes expressing α1β2γ2 GABAA receptors or non-expressing, blocked with 10% fetal bovine serum, incubated with scFv overnight at 16°C, detected with FITC-conjugated M2 anti-Flag, confocal microscopy; settings: one partner purified
T2 construct: GABAA receptor subunit α1, rat; GABAA receptor subunit β2, rat; GABAA receptor subunit γ2, human; also called intact GABAA receptor; GABAA receptors heterologously expressed by Xenopus laevis oocytes; source: Xenopus laevis oocytes injected with mRNA of each subunit, on the oocyte surface; copies: + +

[3] = biological target: T3, biotinylated α1 peptide (GABAA receptor α1 subunit peptide) (Rattus norvegicus, SMILES …); test: SRU BIND Reader (label-free plate-based biosensor); biotinylated peptides (10 µg/mL) captured on streptavidin-coated BIND plates, blocked with PBST + 5% BSA, scFvs (0.008-17.5 µM) added in elution buffer, 1 h at RT; shift of peak wavelength against concentration; settings: both partners purified
T3 construct: Serine-Glycine-Serine linker between the N-terminal biotin and the peptide; GABAA receptor subunit α1, rat, residues 1-15; also called alpha 1; source: synthetic peptide
T3 chain: Biotin-SGSQPSQDELKDNTTVFT-NH2

[4] = biological target: T4, FITC-labeled β2 peptide (Rattus norvegicus (paper: rat/human)); test: fluorescence polarisation; 6 µM FITC-α1 peptide or 4 µM FITC-β2 peptide with varying scFv (0-35 µM; G11 0-10 µM) or A10 scFv-Fc (0-1 µM) in PBS + 200 mM imidazole, overnight at 4°C or 2 h at RT; settings: both partners purified
T4 construct: GABAA receptor subunit β2, rat/human, residues 1-19; also called FITC-conjugated target peptide (β2); source: synthetic peptide, HPLC purified
T4 chain: {FITC′}-MWRVRKRGYFGIWSFPLII

[5] = biological target: T5, biotinylated β2 peptide (GABAA receptor β2 subunit peptide) (Rattus norvegicus (paper: rat/human), biotin at the N-terminus; C-terminal amide); test: SRU BIND Reader (label-free plate-based biosensor); biotinylated peptides (10 µg/mL) captured on streptavidin-coated BIND plates, blocked with PBST + 5% BSA, scFvs (0.008-17.5 µM) added in elution buffer, 1 h at RT; shift of peak wavelength against concentration; settings: both partners purified
T5 construct: Serine-Glycine-Serine linker between the N-terminal biotin and the peptide; GABAA receptor subunit β2, rat/human, residues 1-19; also called beta 2; source: synthetic peptide
T5 chain: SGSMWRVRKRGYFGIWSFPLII

[6] = biological target: T6, MBP-α1 peptide fusion protein (Rattus norvegicus); test: far-Western, overlay or dot blot; dot blot; 1 µg to 0.0075 µg MBP-fusion protein adsorbed on PVDF membrane, about 10 nM A10 scFv or A10 scFv-Fc overnight at 4°C, detected with α-Flag-800CW; settings: both partners purified
T6 construct: GABAA receptor subunit α1, rat, residues 1-15, inserted at the C-terminus of the MBP gene in pAT224; also called MBP-fusion protein; source: E. coli, purified (His60 Ni Superflow resin); not shown: MBP, N-terminal, kept
T6 chain: QPSQDELKDNTTVFT

[7] = biological target: T7, GABAA receptor α1 subunit, native, in mouse retina (Mus musculus C57BL/6J, UniProt P62812); test: immunostaining of cells or tissue; 16 µm cryosections of paraformaldehyde-fixed mouse retina, biotinylated scFv, detected with Cy5-conjugated streptavidin, confocal microscopy; settings: one partner purified
T7 construct: GABAA receptor subunit α1, mouse, within native receptors of the retina; Tissue fixed in 4% paraformaldehyde; also called native GABAA receptors in the mouse retina; source: endogenous, C57BL/6J mouse retina, fixed cryosections
T7 sequence (P62812 28-455): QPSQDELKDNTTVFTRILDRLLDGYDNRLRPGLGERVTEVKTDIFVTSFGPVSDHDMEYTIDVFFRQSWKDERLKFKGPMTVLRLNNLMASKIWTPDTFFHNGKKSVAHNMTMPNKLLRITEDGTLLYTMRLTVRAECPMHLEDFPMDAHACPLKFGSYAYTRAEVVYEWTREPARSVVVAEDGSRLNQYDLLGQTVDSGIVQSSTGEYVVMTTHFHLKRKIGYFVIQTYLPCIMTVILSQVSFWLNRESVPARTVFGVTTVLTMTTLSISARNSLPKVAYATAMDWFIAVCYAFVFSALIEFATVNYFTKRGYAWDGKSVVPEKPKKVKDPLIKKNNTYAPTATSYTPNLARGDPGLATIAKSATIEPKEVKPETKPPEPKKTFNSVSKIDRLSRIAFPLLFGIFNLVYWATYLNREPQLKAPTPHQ

T2 sequence (P62813 28-455, chain 1 of 3): as the sequence (P62812 28-455) above
T2 sequence (P63138 26-474, chain 2 of 3): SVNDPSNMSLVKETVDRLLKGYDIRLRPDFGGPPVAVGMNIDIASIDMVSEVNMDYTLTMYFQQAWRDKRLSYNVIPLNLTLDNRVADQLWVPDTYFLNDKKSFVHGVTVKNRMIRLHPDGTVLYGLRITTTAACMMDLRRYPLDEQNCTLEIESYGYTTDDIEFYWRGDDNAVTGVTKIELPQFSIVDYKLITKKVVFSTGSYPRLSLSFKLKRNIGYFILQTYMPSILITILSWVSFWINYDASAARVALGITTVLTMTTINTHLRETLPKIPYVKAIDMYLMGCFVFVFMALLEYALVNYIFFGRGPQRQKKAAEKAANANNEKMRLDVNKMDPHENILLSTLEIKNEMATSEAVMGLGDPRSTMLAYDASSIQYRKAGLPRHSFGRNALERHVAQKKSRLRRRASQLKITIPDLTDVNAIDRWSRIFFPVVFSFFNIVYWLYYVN
T2 sequence (P18507 40-475, chain 3 of 3): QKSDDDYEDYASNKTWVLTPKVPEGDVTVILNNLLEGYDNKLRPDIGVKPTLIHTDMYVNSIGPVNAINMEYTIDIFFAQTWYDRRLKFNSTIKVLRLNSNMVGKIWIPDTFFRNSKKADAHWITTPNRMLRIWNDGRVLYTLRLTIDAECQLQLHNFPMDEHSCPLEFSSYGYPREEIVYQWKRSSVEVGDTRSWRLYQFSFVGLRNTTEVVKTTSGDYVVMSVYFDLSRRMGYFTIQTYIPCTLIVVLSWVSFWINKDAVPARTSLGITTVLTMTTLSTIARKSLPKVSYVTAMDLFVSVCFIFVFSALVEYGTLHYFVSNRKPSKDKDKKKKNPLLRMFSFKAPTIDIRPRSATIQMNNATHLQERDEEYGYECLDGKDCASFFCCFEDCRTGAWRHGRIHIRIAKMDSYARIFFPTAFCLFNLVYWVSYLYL

B1: A10 scFv (anti-α1 subunit-specific scFv), soluble protein (scFv, V domains shown)
VH: EVQLVQSGAEVKKPGASVKVSCKASGYTFTSYYMHWVRQAPGQGLEWMGIINPSGGSTSYAQKFQGRVTMTRDTSTSTVYMELSSLRSEDTAVYYCARDGWGGSSFLDYWGQGTLVTVSS
VL: SYELTQPPSVSVSPGQTARITCSGDALPKKYAYWYQQKSGQAPVLVIYEDSKRPSGIPERFSGSSSGTMATLTISGAQVEDEADYYCYSKDNTGYQMVFGGGTKLTVL
notes: human scFv from a naive phage-display library, order VL-linker-VH; also called scFv A10; anti-α1 scFv; source: P. pastoris X33, secreted, purified (Ni-NTA)
- Kd [1]: 3500 nM
- binding result [2]: binds
- Kd [3]: 2400 nM

B2: G8 scFv (anti-β2 subunit scFv), soluble protein (scFv, V domains shown)
VH: EVQLVQSGAEVKKPGATVKISCKVSGYTFTDYYMHWVQQAPGKGLEWMGLVDPEDGETIYAEKFQGRVTITADTSTDTAYMELSSLRSEDTAVYYCATTPPHDYYDSSGLDYWGQGTLVTVSS
VL: DIQMTQSPSSVSASVGDRVTITCRASQGINRWLAWYQQKPGKAPKLLIYAASNLQSGVPSRFSGSGSGTDFSLTISSLQPEDFATYYCQQSYSPPSTFGGGTKLEIK
notes: human scFv from a naive phage-display library, order VH-linker-VL; source: P. pastoris X33, secreted, purified (Ni-NTA)
- Kd [4]: 970 nM
- binding result [2]: binds
- Kd [5]: 1600 nM

B3: A10 scFv-Fc (dimeric scFv-Fc version of A10) (Fc fusion, human)
VH: B1 VH
VL: B1 VL
notes: as the scFv of m1; order VL-linker-VH; also called A10-Fc; scFv-Fc A10; source: FreeStyle 293F cells, transiently transfected, secreted, purified (His60 Ni Superflow resin); not shown: Fc (human IgG), C-terminal, kept; 3x Flag, C-terminal, kept
- fold increase in dot-blot sensitivity over the scFv [6]: ~10 fold
- Kd [1]: 26 nM

B4: A10 scFv, biotinylated in vitro (scFv, V domains shown)
VH: B1 VH
VL: B1 VL
notes: as the scFv of m1; order VL-linker-VH; The same protein as m1, chemically biotinylated for staining of retinal cryosections; also called α1-specific scFv; source: P. pastoris X33, secreted, purified (Ni-NTA)
- binding result [7]: binds
